# According to patent US20230234991A1, “SELF-ASSEMBLED PEPTIDE NANORODS AND USES THEREOF” (TRANSFERT PLUS, SOCIÉTÉ EN COMMANDITE, priority 2020, published 2023):
# Several values for one entry are separate records, joined by “and”; a condition that tells them apart may be missing. Identical values can stand only once. Entries after “also recorded” stand apart in the source; their conditions may differ.
# Legend:
# [1] = Negative-stain transmission electron microscopy of the assemblies; type: physicochemical
# [2] = Thermal denaturation monitored by CD spectroscopy; type: physicochemical; settings: CD at 222, 212 and 205 nm
# [3] = test system: INS-1E cells; type: cell-based, Rat; settings: 24 h, 50×10^−6 m
# [4] = test system: HEK293T cells
# [5] = test system: macrophage cells (J774A.1)
# [6] = test system: dendritic-like cells (DC2.4)
# [7] = Atomic force microscopy of the assemblies; type: physicochemical
# [8] = Zeta potential; type: physicochemical
# [9] = target: T1, TLR2 (Mus musculus, UniProt Q9QUN7); test: TLR-2 stimulation, SEAP activity in HEK-Blue mTLR2 cells; type: cell-based; settings: HEK-Blue mTLR2 cells, 16 h
# T1 construct: host or cells: HEK293 (HEK-Blue mTLR2)
# Method: TLR-2 stimulation. HEK293 cells stably co-transfected with mTLR2 and SEAP (HEK-Blue mTLR2 cells, InvivoGen) were cultivated in Dulbecco's Modified Eagle's Medium supplemented with 4.5 g/I glucose, 10% (v/v) fetal bovine serum, 100 U/ml penicillin, […], […], 2 mM L-glutamine. At 50-80% confluency, cells were seeded in Hek-Blue detection medium (InvivoGen) at a density of 50,000 cells/well in a 96-well plate containing NRs and controls. After 16 h incubation at 37° C. in 5% CO2, absorbance was monitored at 630 nm.
# T1 sequence (Q9QUN7 25-784): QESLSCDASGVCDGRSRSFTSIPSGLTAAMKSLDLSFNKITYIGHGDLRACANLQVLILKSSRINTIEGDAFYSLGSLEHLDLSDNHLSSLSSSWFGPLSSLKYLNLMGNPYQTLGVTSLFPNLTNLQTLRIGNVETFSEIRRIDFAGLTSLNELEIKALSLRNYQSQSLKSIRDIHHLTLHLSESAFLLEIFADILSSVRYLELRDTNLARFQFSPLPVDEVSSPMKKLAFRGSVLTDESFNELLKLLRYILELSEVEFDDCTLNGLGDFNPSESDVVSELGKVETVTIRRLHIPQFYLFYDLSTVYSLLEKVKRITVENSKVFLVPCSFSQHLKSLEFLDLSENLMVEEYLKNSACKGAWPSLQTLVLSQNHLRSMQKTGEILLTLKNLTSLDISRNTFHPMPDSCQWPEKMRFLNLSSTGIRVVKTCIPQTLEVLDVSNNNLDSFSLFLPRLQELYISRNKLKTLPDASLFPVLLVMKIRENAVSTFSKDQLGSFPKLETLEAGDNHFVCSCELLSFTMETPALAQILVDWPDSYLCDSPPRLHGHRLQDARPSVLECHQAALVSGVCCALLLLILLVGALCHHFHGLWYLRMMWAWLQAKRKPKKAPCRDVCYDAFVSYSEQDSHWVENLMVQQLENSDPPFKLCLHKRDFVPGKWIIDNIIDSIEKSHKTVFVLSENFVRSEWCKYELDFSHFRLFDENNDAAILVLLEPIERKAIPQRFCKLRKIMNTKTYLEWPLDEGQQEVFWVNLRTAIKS
substance,measurement,setting,value
"islet amyloid polypeptide (KCNTATCATQRLANFLVHSSNNFGAILSSTNVGSNTY; Islet amyloid polypeptide; UniProt P10997 34-70, looked up) [IAPP]",Morphology,"[1]; Tris 50×10^−3 M pH 7.4, rotary agitation 48 h, 150×10^−6 M (KKI10 500×10^−6 M)",polymorphic twisted ribbons and fibrils
same,Thermal denaturation,[2],no melt observed
same,calcein-AM/ethidium homodimer-1 staining,[3],increase of ethidium homodimer-1 and a decrease of calcein-AM staining
same,calcein-AM/ethidium homodimer-1 staining,[4],increase of ethidium homodimer-1 and a decrease of calcein-AM staining
same,Cytotoxicity,[5],high decrease of viability
same,Cytotoxicity,[6],high decrease of viability
Ac-KGSGSSNNFGAILSS-NH2 [Ac-KI10],Morphology,[1]; pH 7.4,rope-like fibrils; also recorded: thick rope-like
same,Heigth,[7],7.0 nm and 7.0 ± 0.7 nm
same,Surface charge,[8],49 ± 5 mV
RGSGSSNNFGAILSS [RI10],Morphology of variants of the KI10 sequence,[7],do not adopt a short-like rod confirmation
HGSGSSNNFGAILSS [HI10],Morphology of variants of the KI10 sequence,[7],do not adopt a short-like rod confirmation
Pam2CSK4,SEAP activity,[9],SEAP activity was measured
